Our source for the stoichiometry N and Kd values is paper PMC13132549.

pKd: −log10 of the molar value. Values joined by “and” are separate entries in the source; they are usually repeats but may differ in a detail not shown here. Equal values may be shown once.

Assay [1] has as its target RXRγ (NR2B3) ligand-binding domain (LBD) (human) (UniProt P48443). Briefly: SEC-MALS; 100 µL of each protein at 5 mg/mL (180 µM) injected; 40 mM potassium phosphate pH 7.4, 200 mM KCl; 25 °C.
For assay [2] the target is unchanged. The experiment in a line: ITC; 500 µM Nur77 LBD titrated into 50 µM RXRγ LBD preincubated with vehicle (DMSO) or RXR ligand; 5 °C; 0.25% DMSO; homodimer competition model (SEDPHAT) for the data without ligand. On the technique in general: Isothermal titration calorimetry measures the heat released or taken up as one component is titrated into another.
Assay [3] deals with RXRα (NR2B1) ligand-binding domain (LBD). The experiment in a line: SEC-MALS; 100 µL of each protein at 5 mg/mL (180 µM) injected; 40 mM potassium phosphate pH 7.4, 200 mM KCl; 25 °C. Background: SEC sorts molecules by how far they enter the pores of the column.
The target in assay [4] is RXRα LBD (Homo sapiens) (UniProt P19793). Briefly: ITC. Particulars: cited from earlier work.
Chain of UniProt P19793 (P19793 227-458): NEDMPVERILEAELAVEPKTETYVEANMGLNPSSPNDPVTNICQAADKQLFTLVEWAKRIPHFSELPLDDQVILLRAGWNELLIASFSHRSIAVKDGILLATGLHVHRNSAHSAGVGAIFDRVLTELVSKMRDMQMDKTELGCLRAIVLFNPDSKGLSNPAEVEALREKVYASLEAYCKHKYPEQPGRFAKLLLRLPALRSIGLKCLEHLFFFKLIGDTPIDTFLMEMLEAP

Turning to “RXRγ (NR2B3) ligand-binding domain (LBD) (from UniProt P48443 226-463) (domain or fragment)”, the stoichiometry N in assay [1] was 2 and 4.

Take “Nur77 (NR4A1) ligand-binding domain (LBD) (from UniProt P22736 356-598) (domain or fragment)”: the pKd in assay [2] is 5.05.

Consider “RXRα (NR2B1) ligand-binding domain (LBD) (domain or fragment)”, for which, in assay [3], the stoichiometry N was 2 and 4.

With Nurr1 LBD (from UniProt P43354), the pKd in assay [4] was 5.40.

A word on the stoichiometry N: it is a count of units in the complex or per binding partner. Usually pKd stands for −log10 of the Kd, conventionally taken in molar units.
